Measurements: IntAct's records for PubMed 21642537

These substances were tested against T1, PKD2, Q13563-1.
T1 sequence: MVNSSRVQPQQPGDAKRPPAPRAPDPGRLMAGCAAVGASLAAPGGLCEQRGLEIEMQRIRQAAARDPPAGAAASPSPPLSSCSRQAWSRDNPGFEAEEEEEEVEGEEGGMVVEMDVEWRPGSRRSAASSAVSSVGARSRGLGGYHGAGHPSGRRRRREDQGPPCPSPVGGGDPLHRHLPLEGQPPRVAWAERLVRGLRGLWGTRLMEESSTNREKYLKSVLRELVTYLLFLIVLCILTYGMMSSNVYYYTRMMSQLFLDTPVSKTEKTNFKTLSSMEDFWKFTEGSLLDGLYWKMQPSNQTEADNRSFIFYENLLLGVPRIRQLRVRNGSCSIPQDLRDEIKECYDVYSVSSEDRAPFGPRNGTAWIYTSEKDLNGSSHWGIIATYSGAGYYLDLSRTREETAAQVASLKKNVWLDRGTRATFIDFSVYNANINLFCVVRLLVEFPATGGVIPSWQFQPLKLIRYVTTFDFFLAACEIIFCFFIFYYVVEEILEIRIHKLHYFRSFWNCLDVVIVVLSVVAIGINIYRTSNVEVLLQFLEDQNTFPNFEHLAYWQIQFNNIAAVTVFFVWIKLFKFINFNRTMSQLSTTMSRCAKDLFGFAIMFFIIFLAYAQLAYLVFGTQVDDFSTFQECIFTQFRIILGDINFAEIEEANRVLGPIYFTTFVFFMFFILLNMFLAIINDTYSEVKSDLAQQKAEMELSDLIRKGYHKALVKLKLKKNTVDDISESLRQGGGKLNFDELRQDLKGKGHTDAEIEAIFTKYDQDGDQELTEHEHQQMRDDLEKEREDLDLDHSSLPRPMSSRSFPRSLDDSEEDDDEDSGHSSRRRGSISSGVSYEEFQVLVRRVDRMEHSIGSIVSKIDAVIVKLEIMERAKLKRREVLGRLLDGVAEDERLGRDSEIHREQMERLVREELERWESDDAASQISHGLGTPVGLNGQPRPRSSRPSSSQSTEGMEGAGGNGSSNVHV

Row | effect of a mutation on the interaction | Substance
1 | decreasing interaction strength | Polycystin-1 (Mus musculus), O08852 L4229A;L4233A
2 | decreasing interaction strength | Polycystin-1 (Mus musculus), O08852 L4229A;E4230A

Target: T1, PKD2, Q13563-1
Remark: another data set of the same source

Row | effect of a mutation on the interaction | Substance
3 | decreasing interaction strength | Polycystin-1 (Homo sapiens) (from UniProt P98161-3) L4238A;L4242A;L4245A
4 | decreasing interaction strength | Polycystin-1 (Homo sapiens) (from UniProt P98161-3) F4225A;R4227A
5 | decreasing interaction strength | Polycystin-1 (Homo sapiens) (from UniProt P98161-3) L4238A
6 | decreasing interaction strength | Polycystin-1 (Homo sapiens) (from UniProt P98161-3) D4234R
7 | decreasing interaction strength | Polycystin-1 (Homo sapiens) (from UniProt P98161-3) D4234A;Y4236A
8 | disrupting interaction strength | Polycystin-1 (Homo sapiens) (from UniProt P98161-3) L4238A;E4239A
9 | decreasing interaction strength | Polycystin-1 (Homo sapiens) (from UniProt P98161-3) Y4236R
10 | disrupting interaction strength | Polycystin-1 (Homo sapiens) (from UniProt P98161-3) L4238A;L4242A
11 | decreasing interaction strength | Polycystin-1 (Homo sapiens) (from UniProt P98161-3) L4228A;N4229A
12 | decreasing interaction strength | Polycystin-1 (Homo sapiens) (from UniProt P98161-3) V4217A;L4228A
13 | decreasing interaction strength | Polycystin-1 (Homo sapiens) (from UniProt P98161-3) F4225A;L4228A
